The source of these data is paper PMC3696110, “Hsp70 Oligomerization Is Mediated by an Interaction between the Interdomain Linker and the Substrate-Binding Domain” (PLoS ONE, 2013).

Data set [1] has as its target SBD556 (384-556) of human Hsp70 with the L542Y mutation (human) (UniProt P0DMV8). Put plainly: SEC; analytical SEC, Superdex 75 10/300 GL, 4 °C, 50 mM Tris pH 7.4, 150 mM KCl, 5 mM MgCl2; 6 µM protein. For orientation: Size exclusion chromatography separates by hydrodynamic size, large species first.
Data set [2] deals with dansyl-NR peptide (NRLLLTG, N-terminally labelled with dansyl). As to the kind of experiment: other fluorescence titration; chaperone titrated into 2 µM dansyl-NR peptide, 1 h at 25 °C, 50 mM Tris pH 7.4, 150 mM KCl, 5 mM MgCl2; single-site fit, apparent Kd.
Data set [3] concerns the target SBD556 (384-556) of human Hsp70 with the L542Y mutation (human) (UniProt P0DMV8). Put plainly: SEC; analytical SEC, Superdex 75 10/300 GL, 4 °C, 50 mM Tris pH 7.4, 150 mM KCl, 5 mM MgCl2; 70 µM protein.
The target is the same in data set [4]. Put plainly: native MS; nESI-MS, 150 mM ammonium acetate pH 7.4, protein 6 µM (6-15 µM); abundances from the most abundant charge states.
Data set [5] addresses full-length human Hsp70 (Hsp70 1A) (human) (UniProt P0DMV8). As to the kind of experiment: SEC; analytical SEC, Superdex 75 10/300 GL, 4 °C, 50 mM Tris pH 7.4, 150 mM KCl, 5 mM MgCl2; 6 µM protein.
The target is the same in data set [6]. Put plainly: SEC; analytical SEC, Superdex 75 10/300 GL, 4 °C; 220 µM protein.
For data set [7] the target is unchanged. Put plainly: SEC; analytical SEC, Superdex 75 10/300 GL, 4 °C, 50 mM Tris pH 7.4, 150 mM KCl, 5 mM MgCl2; 70 µM protein.
Data set [8] has the same target. Put plainly: native MS; nESI-MS, 150 mM ammonium acetate pH 7.4, protein 6 µM (6-15 µM); abundances from the most abundant charge states.
Data set [9] relates to P0DMV8. Put plainly: SEC; analytical SEC, Superdex 75 10/300 GL, 4 °C, 50 mM Tris pH 7.4, 150 mM KCl, 5 mM MgCl2; 6 µM protein.
Data set [10] has as its system P0DMV8. Put plainly: SEC; analytical SEC, Superdex 75 10/300 GL, 4 °C, 50 mM Tris pH 7.4, 150 mM KCl, 5 mM MgCl2; 70 µM protein.
Data set [11] has as its system P0DMV8. Put plainly: native MS; nESI-MS, 150 mM ammonium acetate pH 7.4, protein 6 µM (6-15 µM); abundances from the most abundant charge states.
In data set [12] the target is FL-Hsp70 2LD, full-length human Hsp70 with Leu395 and Leu397 substituted by aspartic residues (human) (UniProt P0DMV8). Put plainly: SEC; analytical SEC, Superdex 75 10/300 GL, 4 °C; 220 µM protein.
Data set [13] addresses SBD641 (384-641), full-length substrate-binding domain of human Hsp70 with the interdomain linker (human) (UniProt P0DMV8). Put plainly: SEC + other: dynamic light scattering; fraction of oligomers (SEC) and apparent hydrodynamic diameter (DLS) of SBD641 against protein concentration; extrapolation to 0.5 oligomer fraction.
Data set [14] has the same target. As to the kind of experiment: SEC; analytical SEC, Superdex 75 10/300 GL, 4 °C, 50 mM Tris pH 7.4, 150 mM KCl, 5 mM MgCl2; 6 µM protein.
For data set [15] the target is unchanged. As to the kind of experiment: native MS + SEC; oligomerization constant estimated from the populations of Table 1; equilibrium of monomer, dimer and trimer.
Data set [16] has the same target. Put plainly: native MS; nESI-MS, 150 mM ammonium acetate pH 7.4, protein 6 µM (6-15 µM); abundances from the most abundant charge states.
For data set [17] the target is unchanged. Put plainly: SEC; fraction of oligomeric species set beside DLS (Figure S3C), without NR peptide; 20 µM protein named for the panel.
Data set [18] has the same target. As to the kind of experiment: SEC; analytical SEC after 1 h at room temperature with a 14-fold excess of NR peptide; protein concentration of this panel not stated.
Data set [19] has the same target. As to the kind of experiment: SEC; analytical SEC, Superdex 75 10/300 GL, 4 °C, 50 mM Tris pH 7.4, 150 mM KCl, 5 mM MgCl2; 70 µM protein.
For data set [20] the target is unchanged. As to the kind of experiment: SEC; fraction of oligomeric species set beside DLS (Figure S3C), with 14-times excess of NR peptide; 20 µM SBD641 named for the panel.
Data set [21] shares this target. Put plainly: native MS; nESI-MS, 150 mM ammonium acetate pH 7.4, protein 6 µM (6-15 µM); abundances from the most abundant charge states. The source holds these as a separate data set.
The test system of data set [22] is P0DMV8. Put plainly: SEC; analytical SEC after 1 h at room temperature with a 14-fold excess of NR peptide; protein concentration of this panel not stated.
The subject of data set [23] is P0DMV8. As to the kind of experiment: SEC; analytical SEC of SBD641 refolded after thermal denaturation; protein concentration of this panel not stated.
Data set [24] deals with ΔLSBD641 (394-641), SBD641 of human Hsp70 without the first ten residues of the interdomain linker (human) (UniProt P0DMV8). Put plainly: SEC; analytical SEC, Superdex 75 10/300 GL, 4 °C, 50 mM Tris pH 7.4, 150 mM KCl, 5 mM MgCl2; 6 µM protein.
Data set [25] has the same target. As to the kind of experiment: SEC; fraction of oligomeric species set beside DLS (Figure S3C), without NR peptide; 20 µM protein named for the panel.
The target is the same in data set [26]. As to the kind of experiment: SEC; analytical SEC, Superdex 75 10/300 GL, 4 °C, 50 mM Tris pH 7.4, 150 mM KCl, 5 mM MgCl2; 70 µM protein.
For data set [27] the target is unchanged. Put plainly: native MS; nESI-MS, 150 mM ammonium acetate pH 7.4, protein 6 µM (6-15 µM); abundances from the most abundant charge states.

Where two headings read alike, the source gives them in different places.

Chain of FL-Hsp70 2LD, full-length human Hsp70 with Leu395 and Leu397 substituted by aspartic residues (P0DMV8 whole entry): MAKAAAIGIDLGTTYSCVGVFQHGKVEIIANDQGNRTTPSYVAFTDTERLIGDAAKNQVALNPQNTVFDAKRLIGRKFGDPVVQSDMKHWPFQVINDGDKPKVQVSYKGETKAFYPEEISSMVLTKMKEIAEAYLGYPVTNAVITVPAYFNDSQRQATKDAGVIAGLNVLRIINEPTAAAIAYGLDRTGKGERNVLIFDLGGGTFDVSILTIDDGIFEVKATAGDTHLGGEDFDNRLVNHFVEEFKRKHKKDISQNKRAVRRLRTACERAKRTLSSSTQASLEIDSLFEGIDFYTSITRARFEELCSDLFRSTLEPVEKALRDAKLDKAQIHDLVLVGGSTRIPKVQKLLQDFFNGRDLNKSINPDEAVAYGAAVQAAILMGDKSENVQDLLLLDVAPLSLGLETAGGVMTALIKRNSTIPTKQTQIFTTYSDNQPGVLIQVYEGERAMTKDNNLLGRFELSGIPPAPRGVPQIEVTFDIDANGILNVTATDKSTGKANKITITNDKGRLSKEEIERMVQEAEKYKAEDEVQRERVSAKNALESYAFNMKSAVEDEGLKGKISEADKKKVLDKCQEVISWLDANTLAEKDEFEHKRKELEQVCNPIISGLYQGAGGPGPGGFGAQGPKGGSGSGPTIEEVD

For “SBD556 (384-556) of human Hsp70 with the L542Y mutation (from UniProt P0DMV8 384-556) (domain or fragment)”, in [1], the % dimer was 3% and the % total oligomers came out at 3%. Further, the Kd in data set [2] amounted to 53 µM. In [3], this substance returned a % dimer of 7% and a % total oligomers of 7%. In data set [4], this substance displayed a % dimer of 16%, a % total oligomers of 18% and a % trimer of 2%.

In [5], “full-length human Hsp70 (Hsp70 1A) (from UniProt P0DMV8 1-641) (natural protein)” registered a % dimer of 1% and a % total oligomers of 1%. Also, the Kd in data set [2] turned out to be 9 µM. Also, the % oligomeric species in data set [6] was 35%. In data set [7], this substance gave a % dimer of 7%, a % oligomeric species of 10% and a % total oligomers of 7%. Moreover, in data set [8], the % dimer came to 2%, the % total oligomers stood at 2% and the % trimer was -0%.

Regarding full-length human Hsp70 (Hsp70 1A), the values for the % monomer in the data set with P0DMV8 [9], in the data set with P0DMV8 [10] and with P0DMV8 [11] were 99%, 93% and 98%, respectively.

Substance “FL-Hsp70 2LD, full-length human Hsp70 with Leu395 and Leu397 substituted by aspartic residues (from UniProt P0DMV8 1-641) (natural protein)” gave a % oligomeric species in data set [12] of less than 9%.

For the substance “SBD641 (384-641), full-length substrate-binding domain of human Hsp70 with the interdomain linker (from UniProt P0DMV8 384-641) (domain or fragment)”, the Kd was 1 to 10 µM in data set [13], 11 µM in data set [2] and 5 to 10 µM in data set [15]. Besides, the % dimer in [14] was 44%; in [18] it was 24%; in [19], 55%; in [21] it was 40%. The values for the % total oligomers in [14], in data set [19] and in [21] were 63%, 77% and 54%, respectively. The % tetramer in [16] was 2%. The % trimer stood at 12% in data set [16] and 10% in data set [21]. For the same substance, the fraction of oligomeric species turned out to be 0.7 in data set [17] and 0.5 in [20]. The % higher-order oligomers in [18] came to 18%; in data set [19] it was 22%.

Take “ΔLSBD641 (394-641), SBD641 of human Hsp70 without the first ten residues of the interdomain linker”: the % monomer worked out at 91% in the data set with P0DMV8 [9], 86% with P0DMV8 [10] and 92% with P0DMV8 [11].

As for “SBD641 (384-641), full-length substrate-binding domain of human Hsp70 with the interdomain linker”, the % monomer in the data set with P0DMV8 [9] was 37%; in the data set with P0DMV8 [22], “the monomeric fraction increases from 37% to 58% in the presence of peptide”; in the data set with P0DMV8 [10] it was 23%; in the data set on P0DMV8 [11], 46%; in the data set on P0DMV8 [23], “a dramatic increase in the monomeric fraction of the refolded protein compared to the native protein (from 37% to 71%)”.

Turning to “ΔLSBD641 (394-641), SBD641 of human Hsp70 without the first ten residues of the interdomain linker (from UniProt P0DMV8 394-641) (domain or fragment)”, in data set [24], the % dimer amounted to 9% and the % total oligomers was found to be 9%. Also, the Kd in [2] was 8 µM. The fraction of oligomeric species in data set [25] was determined as 0.1. In data set [26], this substance returned a % dimer of 14% and a % total oligomers of 14%. In data set [27], this substance gave a % dimer of 8%, a % total oligomers of 8% and a % trimer of -0%.

As for “SBD556 (384-556) of human Hsp70 with the L542Y mutation”, the % monomer in the data set with P0DMV8 [9] amounted to 97%; in the data set with P0DMV8 [10], 93%; in the data set with P0DMV8 [11] it was 82%.
